Our source for the Kd, kon and koff values is patent US20260209357A1 (CSL INNOVATION, published 2026).

One experiment deals with T1, Human IgG1 Fc (huG1Fc) (human, UniProt P0DOX5 218-449 = IgG part).
T1 construct: Wild-type Fc control, directly immobilised on the chip; also called G1Fc homodimer
As to the kind of experiment: SPR, ligand directly immobilised, soluble Fcγ receptor as analyte, pH 7.3.

Experiment [1] has as its target T2, biotinylated human FcRn/β2m (human, UniProt P55899 24-297; P61769 21-119, biotinylated (Biotin-NHS amine chemistry or BirA biotin ligase; site not stated)).
T2 construct: The soluble human FcRn/β2m after biotinylation, tethered on streptavidin or neutravidin chips; also called surface-captured biotinylated human FcRn complexed with β2m
As to the kind of experiment: SPR, biotinylated FcRn/β2m on streptavidin or neutravidin chip, antagonist as analyte (avidity conditions), pH 7.3.

The target in experiment [2] is T3, soluble recombinant human FcRn/β2m (human, UniProt P55899 24-297; P61769 21-119).
T3 construct: About 42 kDa; also called HuFcRn/b2m; huFcRn/b2m
As to the kind of experiment: SPR, ligand on surface, soluble HuFcRn/b2m as analyte; pH not printed with the table (paragraph 351 speaks of pH 6.0). A general note: SPR reads the build-up and loss of mass on a sensor chip optically.

Experiment [3] has as its target T2, biotinylated human FcRn/β2m. As to the kind of experiment: SPR, biotinylated FcRn/β2m on streptavidin or neutravidin chip, antagonist as analyte (avidity conditions), pH 7.3; column head printed ka (1/s).
Experiment [4] has the same target. The experiment is described as follows: SPR, surface-bound huFcRn/b2m, pH 7.3.

T2 sequence (P55899 24-297 limits assumed, chain 1 of 2): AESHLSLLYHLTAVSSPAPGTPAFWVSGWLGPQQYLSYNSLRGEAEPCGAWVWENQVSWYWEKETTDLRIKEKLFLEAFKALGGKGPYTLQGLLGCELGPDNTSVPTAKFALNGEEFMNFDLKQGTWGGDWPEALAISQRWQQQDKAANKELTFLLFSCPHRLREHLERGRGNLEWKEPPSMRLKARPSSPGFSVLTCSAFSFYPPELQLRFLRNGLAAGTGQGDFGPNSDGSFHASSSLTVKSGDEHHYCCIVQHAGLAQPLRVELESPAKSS
T2 sequence (P61769 21-119 limits assumed, chain 2 of 2): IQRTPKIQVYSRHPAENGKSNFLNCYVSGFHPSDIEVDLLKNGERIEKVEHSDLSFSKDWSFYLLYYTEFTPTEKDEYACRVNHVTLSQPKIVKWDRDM
T3 sequence (P55899 24-297 limits assumed, chain 1 of 2): as the sequence (P55899 24-297 limits assumed, chain 1 of 2) above
T3 sequence (P61769 21-119 limits assumed, chain 2 of 2): as the sequence (P61769 21-119 limits assumed, chain 2 of 2) above

B1: human FcγRI (CD64) (receptor, UniProt P12314 16-292, looked up)
chain: QVDTTKAVITLQPPWVSVFQEETVTLHCEVLHLPGSSSTQWFLNGTATQTSTPSYRITSASVNDSGEYRCQRGLSGRSDPIQLEIHRGWLLLQVSSRVFTEGEPLALRCHAWKDKLVYNVLYYRNGKAFKFFHWNSNLTILKTNISHNGTYHCSGMGKHRYTSAGISVTVKELFPAPVLNASVTSPLLEGNLVTLSCETKLLLQRPGLQLYFSFYMGSKTLRGRNTSSEYQILTARREDSGLYWCEAATEDGNVLKRSPELELQVLGLQLPTPVWFH
notes: extracellular domain; also called FcyRI (CD64)
In the experiment with Human IgG1 Fc (huG1Fc), B1 gave a Kd of 0.086 nM.

B2: huG1FcYPY (other)
chain: EPKSCDKTHTCPPCPAPELLGGPSVFLFPPKPKDTLYISRTPEVTCVVVDVSHEDPEVKFNWYVDGVEVHNAKTKPREEQYNSTYRVVSVLTPLHQDWLNGKEYKCKVSNKALPAPIEKTISKAKGQPREPQVYTLPPSRDELTKNQVSLTCLVKGFYPSDIAVEWESNGQPENNYKTTPPVLDSDGSFFLYSKLTVDKSRWQQGNVFSCSVMHEALHYHYTQKSLSLSPGK
notes: Fc fragment alone; also called G1FcYPY homodimer
Take B2: the Kd in experiment [1] turned out to be 1.1 nM; in experiment [2], 16.9 nM. Besides, the kon (usually the rate constant with which the complex forms) in experiment [1] stood at 492000 M⁻¹ s⁻¹; in experiment [2], 311000 M⁻¹ s⁻¹. Also, the koff (commonly a measure of how fast the partners let go of each other) in experiment [2] was 0.00525 s⁻¹; in experiment [3] it was 0.000532 s⁻¹.

B3: huG1FcYTEKF (other)
chain: EPKSCDKTHTCPPCPAPELLGGPSVFLFPPKPKDTLYITREPEVTCVVVDVSHEDPEVKFNWYVDGVEVHNAKTKPREEQYNSTYRVVSVLTVLHQDWLNGKEYKCKVSNKALPAPIEKTISKAKGQPREPQVYTLPPSRDELTKNQVSLTCLVKGFYPSDIAVEWESNGQPENNYKTTPPVLDSDGSFFLYSKLTVDKSRWQQGNVFSCSVMHEALKFHYTQKSLSLSPGK
notes: Human IgG1 Fc with M252Y, S254T, T256E, H433K, N434F, modelled on efgartigimod with five more N-terminal residues (EPKSC); Fc dimer is to be expected; also called benchmark molecule
In experiment [1], B3 gave a Kd of 2.4 nM and a kon of 970000 M⁻¹ s⁻¹. For the same molecule, in experiment [3], the koff worked out at 0.00236 s⁻¹.

B4: Vyvgart (other)
chain: DKTHTCPPCPAPELLGGPSVFLFPPKPKDTLYITREPEVTCVVVDVSHEDPEVKFNWYVDGVEVHNAKTKPREEQYNSTYRVVSVLTVLHQDWLNGKEYKCKVSNKALPAPIEKTISKAKGQPREPQVYTLPPSRDELTKNQVSLTCLVKGFYPSDIAVEWESNGQPENNYKTTPPVLDSDGSFFLYSKLTVDKSRWQQGNVFSCSVMHEALKFHYTQKSLSLSPGK
notes: also called Efgartigimod; commercially available Vyvgart product
In experiment [4], B4 registered a Kd of 2.3 nM.
